# According to patent US20190167760A1 (SWEDISH ORPHAN BIOVITRUM AB PUBL, published 2019):
# B1: Ornithodoros moubata Complement Inhibitor with a His6 tag in the C-terminus (other)
# chain: MDSESDCTGSEPVDAFQAFSEGKEAYVLVRSTDPKARDCLKGEPAGEKQDNTLPVMMTFKNGTDWASTDWTFTLDGAKVTATLGNLTQNREVVYDSQSHHCHVDKVEKEVPDYEMWMLDAGGLEVEVECCRQKLEELASGRNQMYPHLKDCGGGGSENLYFQGSHHHHHH
# Experiments:
# [1] = target: T1, Human complement protein C5 (human, UniProt P01031 19-673; P01031 678-1676)
# [2] = target: T1, Human complement protein C5; assay: cell-based or functional assay
# T1 sequence (P01031 19-673, chain 1 of 2): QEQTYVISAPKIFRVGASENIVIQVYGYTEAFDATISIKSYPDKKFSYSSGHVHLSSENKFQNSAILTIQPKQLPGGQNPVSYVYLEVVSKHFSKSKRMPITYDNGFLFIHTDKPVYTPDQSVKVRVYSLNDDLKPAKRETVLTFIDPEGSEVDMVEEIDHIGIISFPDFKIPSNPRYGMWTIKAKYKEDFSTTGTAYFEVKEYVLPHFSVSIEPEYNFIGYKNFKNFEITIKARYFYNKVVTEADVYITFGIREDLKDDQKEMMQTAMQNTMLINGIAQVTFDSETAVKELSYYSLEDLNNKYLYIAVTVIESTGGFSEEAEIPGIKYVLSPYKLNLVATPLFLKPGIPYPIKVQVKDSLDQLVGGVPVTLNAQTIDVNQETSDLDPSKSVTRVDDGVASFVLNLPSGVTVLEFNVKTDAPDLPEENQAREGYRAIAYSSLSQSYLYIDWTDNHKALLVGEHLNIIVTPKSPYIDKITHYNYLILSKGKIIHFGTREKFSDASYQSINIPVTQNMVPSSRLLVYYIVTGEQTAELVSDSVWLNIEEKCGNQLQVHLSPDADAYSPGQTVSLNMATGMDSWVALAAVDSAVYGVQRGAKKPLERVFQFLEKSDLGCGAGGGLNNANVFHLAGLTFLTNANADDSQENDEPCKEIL
# T1 sequence (P01031 678-1676, chain 2 of 2): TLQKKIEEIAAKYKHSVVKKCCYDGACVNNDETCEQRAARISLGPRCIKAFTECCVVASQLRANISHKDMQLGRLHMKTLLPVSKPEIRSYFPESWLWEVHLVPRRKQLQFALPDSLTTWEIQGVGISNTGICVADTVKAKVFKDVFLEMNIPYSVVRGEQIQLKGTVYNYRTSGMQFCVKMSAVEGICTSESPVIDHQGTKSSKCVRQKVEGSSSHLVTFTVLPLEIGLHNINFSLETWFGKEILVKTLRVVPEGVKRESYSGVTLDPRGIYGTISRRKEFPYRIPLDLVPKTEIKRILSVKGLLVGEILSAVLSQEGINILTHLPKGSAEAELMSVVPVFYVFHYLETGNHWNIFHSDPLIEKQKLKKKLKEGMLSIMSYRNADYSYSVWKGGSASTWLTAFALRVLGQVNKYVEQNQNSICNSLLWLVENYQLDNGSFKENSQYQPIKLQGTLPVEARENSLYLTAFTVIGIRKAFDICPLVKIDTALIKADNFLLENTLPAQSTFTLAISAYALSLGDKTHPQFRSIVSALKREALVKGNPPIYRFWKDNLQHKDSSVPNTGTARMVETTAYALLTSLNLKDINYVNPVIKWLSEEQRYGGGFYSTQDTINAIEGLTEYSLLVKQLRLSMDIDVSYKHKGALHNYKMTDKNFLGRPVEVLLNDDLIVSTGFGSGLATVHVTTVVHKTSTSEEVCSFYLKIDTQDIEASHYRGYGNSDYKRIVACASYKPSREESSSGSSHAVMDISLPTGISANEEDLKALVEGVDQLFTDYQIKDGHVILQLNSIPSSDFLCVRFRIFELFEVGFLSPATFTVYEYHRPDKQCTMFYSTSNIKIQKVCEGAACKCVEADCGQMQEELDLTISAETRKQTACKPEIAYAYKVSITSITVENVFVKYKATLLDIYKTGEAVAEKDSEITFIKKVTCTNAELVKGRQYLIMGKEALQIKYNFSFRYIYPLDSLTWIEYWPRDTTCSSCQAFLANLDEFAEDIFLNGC
binder,measurement,setting,value
B1,IC50,[1],1.5 nM
same,IC50 of inhibition of hemolysis of antibody sensitized sheep erythrocytes,[2],0.3 to 0.5 nM
